Here are results for 2 molecules from patent publication US20150374794A1 (Novo Nordisk, published 2015).

Test [1] deals with T1, human glucagon receptor (human, UniProt P47871 26-477).
T1 construct: whole, on cells; the potency assay used whole cells (clone pLJ6'-4-25); also called GlucR; hGCGR
The test can be described thus: displacement of 125I-glucagon, membranes with human glucagon receptor, SPA. The procedure:
The receptor binding of each compound to the human glucagon receptor was measured in a displacement binding assay. […] Each derivative was added in a series of concentrations to isolated membranes containing the human glucagon receptor and displacement of the labelled ligand is monitored. The receptor binding was reported as the concentration at which half of the labelled ligand is displaced from the receptor, the IC₅₀ value.

Test [2] deals with T2, human GLP-1 receptor (human, UniProt P43220 24-463). The experiment in a line: cell-based or functional assay.
The target of test [3] is T1, human glucagon receptor. The test can be described thus: cell-based or functional assay.
The target in test [4] is T2, human GLP-1 receptor. The experiment in a line: displacement of 125I-GLP-1(7-36)NH2, membranes with human GLP-1R, SPA. The procedure:
The receptor binding of each compound to the human GLP-1 receptor was measured in a displacement binding assay. […] Each derivative was added in a series of concentrations to isolated membranes containing the human GLP-1 receptor and displacement of the labelled ligand was monitored. The receptor binding was reported as the concentration at which half of the labelled ligand was displaced from the receptor, the IC₅₀ value.
(In general: Loss of bound radioactivity is the signal in a displacement assay; it reports binding, not function.)

Numbered stars: 1 amine (or outer) side, 2 acyl side, 3 side chain; on linkers, the order of the positions; unused ones are H or OH. Square brackets hold non-standard residues; d marks the D form. Side chains are listed from the residue outwards. Ends that are not written are not given here. * marks the point of attachment. C18 diacid = O=C(O)CCCCCCCCCCCCCCCCC(=O)*; γGlu = O=C(O)[C@H](CCC(=O)[*:2])N[*:1]; AEEA = NCCOCCOCC(=O)O; Ac3c = NC1(C(=O)O)CC1; Aib = CC(C)(N)C(=O)O

T1 sequence (P47871 26-477): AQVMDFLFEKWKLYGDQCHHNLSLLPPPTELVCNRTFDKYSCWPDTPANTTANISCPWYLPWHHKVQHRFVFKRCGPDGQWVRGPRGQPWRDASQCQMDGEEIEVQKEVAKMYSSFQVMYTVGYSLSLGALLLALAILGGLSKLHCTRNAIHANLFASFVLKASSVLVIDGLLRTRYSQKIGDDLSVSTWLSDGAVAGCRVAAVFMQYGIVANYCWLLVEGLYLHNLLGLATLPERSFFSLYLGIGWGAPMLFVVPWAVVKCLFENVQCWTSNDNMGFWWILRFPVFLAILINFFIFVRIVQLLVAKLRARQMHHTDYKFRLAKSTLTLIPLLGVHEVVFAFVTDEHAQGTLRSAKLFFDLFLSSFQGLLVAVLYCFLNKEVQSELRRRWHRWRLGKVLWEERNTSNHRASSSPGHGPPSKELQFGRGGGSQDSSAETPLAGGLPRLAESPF

B1: N^ε28-[(4S)-4-carboxy-4-[[(4S)-4-carboxy-4-[[2-[2-[2-[[2-[2-[2-[[(4S)-4-carboxy-4-(17-carboxyheptadecanoylamino)butanoyl]amino]ethoxy]ethoxy]acetyl]amino]ethoxy … (peptide)
peptide: H[Ac3c]QGTFTSDLSKYLESRRAREFVQWLLK([γGlu-γGlu-AEEA-AEEA-γGlu-C18 diacid])T-NH2
modifications: N-terminus assumed
SMILES: CC(C)C[C@H](NC(=O)[C@H](Cc1ccc(O)cc1)NC(=O)[C@H](CCCCN)NC(=O)[C@H](CO)NC(=O)[C@H](CC(C)C)NC(=O)[C@H](CC(=O)O)NC(=O)[C@H](CO)NC(=O)[C@@H](NC(=O)[C@H](Cc1ccccc1)NC(=O)[C@@H](NC(=O)CNC(=O)[C@H](CCC(N)=O)NC(=O)C1(NC(=O)[C@@H](N)Cc2c[nH]cn2)CC1)[C@@H](C)O)[C@@H](C)O)C(=O)N[C@@H](CCC(=O)O)C(=O)N[C@@H](CO)C(=O)N[C@@H](CCCNC(=N)N)C(=O)N[C@@H](CCCNC(=N)N)C(=O)N[C@@H](C)C(=O)N[C@@H](CCCNC(=N)N)C(=O)N[C@@H](CCC(=O)O)C(=O)N[C@@H](Cc1ccccc1)C(=O)N[C@H](C(=O)N[C@@H](CCC(N)=O)C(=O)N[C@@H](Cc1c[nH]c2ccccc12)C(=O)N[C@@H](CC(C)C)C(=O)N[C@@H](CC(C)C)C(=O)N[C@@H](CCCCNC(=O)CC[C@H](NC(=O)CC[C@H](NC(=O)COCCOCCNC(=O)COCCOCCNC(=O)CC[C@H](NC(=O)CCCCCCCCCCCCCCCCC(=O)O)C(=O)O)C(=O)O)C(=O)O)C(=O)N[C@H](C(N)=O)[C@@H](C)O)C(C)C
Consider B1, for which the figures for the half-maximal inhibitory concentration (IC50) in test [1] and in test [4] were 26.2 nM and 2.2 nM, respectively. Further, the “EC50 GLP-1R, CRE luciferase reporter gene assay in BHK cells” value in test [2] was found to be 0.011 nM. For the same molecule, in test [3], the “EC50 GlucR, CRE luciferase reporter gene assay in BHK cells” value was found to be 0.28 nM.

B2: N^ε28-[(4S)-4-carboxy-4-[[(4S)-4-carboxy-4-[[2-[2-[2-[[2-[2-[2-[[(4S)-4-carboxy-4-(17-carboxyheptadecanoylamino)butanoyl]amino]ethoxy]ethoxy]acetyl]amino]ethoxy … (peptide)
peptide: H[Aib]QGTFTSDLSKYLD[Aib]RRAREFVQWLLK([γGlu-γGlu-AEEA-AEEA-γGlu-C18 diacid])T-NH2
modifications: N-terminus assumed
SMILES: CC(C)C[C@H](NC(=O)[C@H](Cc1c[nH]c2ccccc12)NC(=O)[C@H](CCC(N)=O)NC(=O)[C@@H](NC(=O)[C@H](Cc1ccccc1)NC(=O)[C@H](CCC(=O)O)NC(=O)[C@H](CCCNC(=N)N)NC(=O)[C@H](C)NC(=O)[C@H](CCCNC(=N)N)NC(=O)[C@H](CCCNC(=N)N)NC(=O)C(C)(C)NC(=O)[C@H](CC(=O)O)NC(=O)[C@H](CC(C)C)NC(=O)[C@H](Cc1ccc(O)cc1)NC(=O)[C@H](CCCCN)NC(=O)[C@H](CO)NC(=O)[C@H](CC(C)C)NC(=O)[C@H](CC(=O)O)NC(=O)[C@H](CO)NC(=O)[C@@H](NC(=O)[C@H](Cc1ccccc1)NC(=O)[C@@H](NC(=O)CNC(=O)[C@H](CCC(N)=O)NC(=O)C(C)(C)NC(=O)[C@@H](N)Cc1c[nH]cn1)[C@@H](C)O)[C@@H](C)O)C(C)C)C(=O)N[C@@H](CC(C)C)C(=O)N[C@@H](CCCCNC(=O)CC[C@H](NC(=O)CC[C@H](NC(=O)COCCOCCNC(=O)COCCOCCNC(=O)CC[C@H](NC(=O)CCCCCCCCCCCCCCCCC(=O)O)C(=O)O)C(=O)O)C(=O)O)C(=O)N[C@H](C(N)=O)[C@@H](C)O
On to B2, for which the IC50 is 1.4 nM in test [1] and 0.7 nM in test [4]. In test [2], the “EC50 GLP-1R, CRE luciferase reporter gene assay in BHK cells” value is 0.006 nM. The “EC50 GlucR, CRE luciferase reporter gene assay in BHK cells” value in test [3] is 0.004 nM.

Usually IC50 stands for the concentration that inhibits the measured activity by half. Lower therefore signals inhibition by little substance.
